This is an account of results in paper PMC10403728, “Interactions between Fkh1 monomers stabilize its binding to DNA replication origins” (The Journal of Biological Chemistry, 2023).

This series deals with the molecule itself. As to the kind of experiment: SEC + other: glycerol gradient sedimentation; purified FLAG-Fkh1; Superdex 200 5/150 GL in 150N buffer (25 mM Hepes-NaOH pH 7.6, 150 mM NaCl, 10% glycerol, 1 mM β-mercaptoethanol); main-peak and shoulder fractions on 10 to 15% glycerol gradients, 180,000g, 18 h, 4 °C; approximate molecular weight from Stokes radius and S value; monomer and dimer.

B1: full-length Fkh1 (natural protein, Saccharomyces cerevisiae, UniProt P40466 1-484, looked up)
chain: MSVTSREQKFSGKYSSYTAQDRQGLVNAVTCVLSSSSDPVAVSSDYSNSLSIAREVNAYAKIAGCDWTYYVQKLEVTIGRNTDSLNLNAVPGTVVKKNIDIDLGPAKIVSRKHAAIRFNLESGSWELQIFGRNGAKVNFRRIPTGPDSPPTVLQSGCIIDIGGVQMIFILPEQETIISDYCLNHLMPKLLSTYGTNGNNNPLLRNIIEGSTYLREQRLQEEARLQQLDHLHTPLSSSSDVNPIGDPHGDTIMMEEDEEDENYTRGGIRPNTYTSSSNNAVTNGNVPHIENPSDLSLDENRYIKPPQSYASMITQAILSTPEGSISLADIYKFISDNYAFYRFSQMAWQNSVRHNLSLNKAFEKVPKRAGQQGKGMNWKISDEVRRDFLNKWNAGKLSKIRRGASVTRQLQLHMSKFGEIPAPESSSIDPRGIKAQKVKKSLQATSSILGESAPQLQRTQLTGQISTTTSMDVTTNANVNNSSLS
notes: Fkh1, Forkhead family transcription factor of Saccharomyces cerevisiae, full length (the truncation Δ410–484 tells a length of 484 residues); also called wild-type Fkh1; FLAG-tagged full-length Fkh1; source: S. cerevisiae (W303 derivative), GAL1-10 promoter, galactose-induced; also in whole-cell extract of a strain co-expressing two differently tagged copies; not shown: FLAG, N-terminal, kept
For the protein B1, the “stoichiometry N” value stood at 2.
